# According to patent US20110111461A1 (Hoffmann-La Roche, published 2011):
# Key:
# [1] = biological target: T1, human epidermal growth factor receptor (EGFR) (human, UniProt P00533 25-1210); test: flow cytometry on A431 cells; light chain variants paired with I-HHD
# T1 construct: whole, on cells; also called HER-1; ErbB1
# Protocol: (§1) The purified, monomeric humanized antibody variants were tested for binding to human epidermal growth factor receptor (EGFR, also referred to in the literature as HER-1 or ErbB1) on the A431 human epidermal cell line, using a flow cytometry-based assay. 200,000 cells (e.g., from human A431 cell line) in 180 μl FACS buffer (PBS containing 2% FCS and 5 mM EDTA) were transferred to 5 ml polystyrene tubes and 20 μl 10 fold concentrated anti-EGFR antibody (primary antibody) samples (1-5000 ng/ml final concentration) or PBS only were added. After gently mixing the samples, the tubes were incubated at 4° C. for 30 min in the dark. Subsequently, samples were washed twice with FACS buffer and pelleted at 300×g for 3 min. Supernatant was aspirated off and cells were taken up in 50 μl FACS buffer and 2 μl secondary antibody (anti-Fc-specific F(ab′)2-FITC fragments (Jackson Immuno Research Laboratories, USA)) was added and the tubes were incubated at 4° C. for 30 min. Samples were washed twice with FACS buffer and taken up in 500 μl of FACS buffer for analysis by Flow Cytometry. Binding was determined by plotting the geometric mean fluorescence against the antibody concentrations.
# Each of the I-KC variant constructs (I-KCl to I-KC9) was paired with a heavy chain variable region comprising construct I-HHD (SEQ ID NO:16 and SEQ ID NO:15) and a binding assay performed according to the methods described in the previous examples. Constructs I-KCl to I-KC9 were compared to the I-KC construct (SEQ ID NO:46 and SEQ ID NO:45) for binding affinity to EGFR in A431 target cells (FIG. 29). […] Therefore, when paired with a chimeric (e.g., humanized) heavy chain construct specific for EGFR, the light chain can be entirely human (e.g., from a human light chain V gene sequence) and still retain specific binding for EGFR. In particular, CDR2 and CDR3 can be entirely in human germline form.
# [2] = biological target: T1, human epidermal growth factor receptor …; test: flow cytometry on A431 cells; chain swap with ch-ICR62 (FIG. 1)
# Protocol: as §1
# Only the I-HHA has strongly diminished binding activity (see FIG. 2). […]
Binder,binding result [1],further results
"humanized ICR62 antibody I-HHD / I-KC3 (antibody, human IgG1, V domains shown) VH: QVQLVQSGAEVKKPGSSVKVSCKASGFTFTDYKIHWVRQAPGQGLEWMGYFNPNSGYSTYAQKFQGRVTITADKSTSTAYMELSSLRSEDTAVYYCARLSPGGYYVMDAWGQGTTVTVSS VL: DIQMTQSPSSLSASVGDRVTITCRASQGINNYLGWYQQKPGKAPKRLIYNTNNLQTGVPSRFSGSGSGTEFTLTISSLQPEDFATYYCLQHNSFPTFGQGTKLEIKR",,EC50 fold increase relative to the I-KC construct [1]: 10 fold
"chimeric ICR62 heavy chain (rVH) combined with the I-KB light chain (antibody, human IgG1, V domains shown, also called rVH / I-KB) VH: QVNLLQSGAALVKPGASVKLSCKGSGFTFTDYKIHWVKQSHGKSLEWIGYFNPNSGYSTYNEKFKSKATLTADKSTDTAYMELTSLTSEDSATYYCTRLSPGGYYVMDAWGQGASVTVSS VL: DIQMTQSPSSLSASVGDRVTITCKASQNINNYLNWYQQKPGKAPKRLIYNTNNLQTGVPSRFSGSGSGTEYTLTISSLQPEDFATYYCLQHNSFPTFGQGTKLEIKR",,binding result [2]: binds
"humanized ICR62 antibody I-HHD / I-KC4 (antibody, human IgG1, V domains shown) VH: QVQLVQSGAEVKKPGSSVKVSCKASGFTFTDYKIHWVRQAPGQGLEWMGYFNPNSGYSTYAQKFQGRVTITADKSTSTAYMELSSLRSEDTAVYYCARLSPGGYYVMDAWGQGTTVTVSS VL: DIQMTQSPSSLSASVGDRVTITCRASQGINNYLNWYQQKPGKAPKRLIYTTNNLQTGVPSRFSGSGSGTEFTLTISSLQPEDFATYYCLQHNSFPTFGQGTKLEIKR",binds,
"humanized ICR62 antibody I-HHD / I-KC6 (antibody, human IgG1, V domains shown) VH: QVQLVQSGAEVKKPGSSVKVSCKASGFTFTDYKIHWVRQAPGQGLEWMGYFNPNSGYSTYAQKFQGRVTITADKSTSTAYMELSSLRSEDTAVYYCARLSPGGYYVMDAWGQGTTVTVSS VL: DIQMTQSPSSLSASVGDRVTITCRASQGINNYLNWYQQKPGKAPKRLIYNTSNLQTGVPSRFSGSGSGTEFTLTISSLQPEDFATYYCLQHNSFPTFGQGTKLEIKR",binds,
"humanized ICR62 antibody I-HHD / I-KC8 (antibody, human IgG1, V domains shown) VH: QVQLVQSGAEVKKPGSSVKVSCKASGFTFTDYKIHWVRQAPGQGLEWMGYFNPNSGYSTYAQKFQGRVTITADKSTSTAYMELSSLRSEDTAVYYCARLSPGGYYVMDAWGQGTTVTVSS VL: DIQMTQSPSSLSASVGDRVTITCRASQGINNYLNWYQQKPGKAPKRLIYNTNNLQSGVPSRFSGSGSGTEFTLTISSLQPEDFATYYCLQHNSFPTFGQGTKLEIKR",binds,

# Now from value to binder, other results behind:
binding result [1],Binder,further results
binds,"humanized ICR62 antibody I-HHD / I-KC5 (antibody, human IgG1, V domains shown) VH: QVQLVQSGAEVKKPGSSVKVSCKASGFTFTDYKIHWVRQAPGQGLEWMGYFNPNSGYSTYAQKFQGRVTITADKSTSTAYMELSSLRSEDTAVYYCARLSPGGYYVMDAWGQGTTVTVSS VL: DIQMTQSPSSLSASVGDRVTITCRASQGINNYLNWYQQKPGKAPKRLIYNANNLQTGVPSRFSGSGSGTEFTLTISSLQPEDFATYYCLQHNSFPTFGQGTKLEIKR",
binds,"humanized ICR62 antibody I-HHD / I-KC9 (antibody, human IgG1, V domains shown) VH: QVQLVQSGAEVKKPGSSVKVSCKASGFTFTDYKIHWVRQAPGQGLEWMGYFNPNSGYSTYAQKFQGRVTITADKSTSTAYMELSSLRSEDTAVYYCARLSPGGYYVMDAWGQGTTVTVSS VL: DIQMTQSPSSLSASVGDRVTITCRASQGINNYLNWYQQKPGKAPKRLIYNTNNLQTGVPSRFSGSGSGTEFTLTISSLQPEDFATYYCLQHNSYPTFGQGTKLEIKR",
binds,"humanized ICR62 antibody I-HHD / I-KC7 (antibody, human IgG1, V domains shown) VH: QVQLVQSGAEVKKPGSSVKVSCKASGFTFTDYKIHWVRQAPGQGLEWMGYFNPNSGYSTYAQKFQGRVTITADKSTSTAYMELSSLRSEDTAVYYCARLSPGGYYVMDAWGQGTTVTVSS VL: DIQMTQSPSSLSASVGDRVTITCRASQGINNYLNWYQQKPGKAPKRLIYNTNSLQTGVPSRFSGSGSGTEFTLTISSLQPEDFATYYCLQHNSFPTFGQGTKLEIKR",
